These results are taken from patent US20080249043.

One series addresses His-tagged PLS3(T21A) (UniProt Q9NRY6).
The target in series [1] is His-tagged PLS3 (wild-type phospholipid scramblase 3) (UniProt Q9NRY6).
Series [2] has as its target first 50-aa fragment of PLS3, His-tagged (UniProt Q9NRY6).

Sequence of His-tagged PLS3(T21A) (Q9NRY6 other isoform, or with tags, fused parts or gaps T21A): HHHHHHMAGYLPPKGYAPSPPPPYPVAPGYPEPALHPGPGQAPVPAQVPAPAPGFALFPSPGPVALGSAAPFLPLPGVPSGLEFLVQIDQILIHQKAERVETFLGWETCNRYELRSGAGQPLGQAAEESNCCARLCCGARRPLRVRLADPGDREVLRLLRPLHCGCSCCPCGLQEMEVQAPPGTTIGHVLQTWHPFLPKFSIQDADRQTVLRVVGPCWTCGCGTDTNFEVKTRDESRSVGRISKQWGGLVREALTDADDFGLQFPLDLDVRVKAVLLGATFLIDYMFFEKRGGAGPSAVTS

Consider “Recombinant human PKC-δ enzyme (Calbiochem)”, for which the “in vitro phosphorylation with [γ-32P]ATP, autoradiography” value with His-tagged PLS3(T21A) is “mutation at Thr21 nearly eliminated PLS3 phosphorylation by PKC-δ”; in series [1] it was “Phosphorylation was seen in both full-length PLS3 and its N-terminal fragment of PLS3”; in series [2], “Phosphorylation was seen in both full-length PLS3 and its N-terminal fragment of PLS3”.
